Measured values as given in a protein production outcome set (Wang et al. 2014).

Assay: label from the status in PepcDB records
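Further: failed if final PepcDB status was selected cloned or expressed and not failed if soluble or beyond.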

Sequence | protein production
MSASVVCVVGNPNCGKTTLFNALTGGRQSVGNWPGVTVEKKVGAYRHGGEAVTIVDLPGVYSLTPTSSSSEDERVARDYILSGEAGLVLNIVDASNLERNLYLTAQLLEMRVPMVVIVNMMDIAASRHLDIDIDALSKSLDCKVVPMVASRRRGLDDLREVIAQSMGRTTPPAASAPYPPAVSEAVGRIAATLPADSRADRRWTALQLLEGDSTLLRDLPPATALALESDLKQAAQSGTEDFDILIADARYGFVGAIALGAVIRKGQMSRTLTDRIDKVVLHRVLGIPIFLAMMYLMFVFTINVGGAFIDFFDQFAGTLFVDGFGHLLGGAGAPDWLTALLAKGVGGGVQTVATFIPVIGFLYLFLSVLEDSGYMARAAFVMDRFMRGIGLPGKAFVPLIVGFGCNVPAVMATRTMDSRRDRLITVMMAPFMSCGARLPVYVLFAAAFFPSGGQNLVFALYLIGILVAIATGLLLKTTALRGEASPFVMEMPPYHLPTVAGILLRTWDRLKSFILRAGKLVVAVVVVLSFLNSWGTDGSFGNEDTDKSVLAAIGKAIVPVFAPMGISEENWPATVGVFTGIFAKEAVVGTLDALYGTIAEGNAAAAQAEADPEAAATEEPEAFDLWGGLAGAFATIPANLSNVAGALADPLGIEVGDLSDRSAVAADQEISTSSIDAIALLFDGAIGAFAYLLMVLLYMPCVAAVSAIWREVGTRWTLFAAAWTTGMGYGAAVLTYQIGTFSRHPVSSAVDIAVVLAVLAAAIALLRLAGRGSAEAGPISAGQTAS | failed
MSATLKDYLNKRVVIIKVDGECLIASLNGFDKNTNLFITNVFNRISKEFICKAQLLRGSEIALVGLIDAENDDSLAPIDEKKVPMLKDTKNKIENEHVIWEKVYESKTK | failed
MSATTTNLKEAIVNRRSIRKVTKNDAITKERIEEVLKTALHAPTSFNMQSGRMVVLMDGEHEKFWDIVKETLRARVPAENFEATVERLKGFHAGVGTVLFFEDQATVEKMQENAPLYKDQFPFWSHQGNAMLQHTVWMLLSAEGIGASLQHYNPIVDAEVKETWNIPAEWSLVGQMPFGEPNEQPAERTFLPTEDVVKFY | not failed
MSAVFSGGLTQAGGMSSTETVDSSAVSSGTISDYVEAMGPSWIAGAIAAGPATIASLVTAGGAFGYSLLWVVVLSAGAGALAQYLAMRLGLLTERGIVAVVEDHLGETWAWLLVGDAVLAAGVAQLVIMKTVATVSATVTGIDARIWGVVWALILAAGLAGGGYRFLELAAKILVLLVVVAFVASLFVVPIDAGAAVAGLVPSVPSGSALVAAGILGGAVHITLITMHSYTMRARGWTREDYDLATVDVGASMLVAFGIYSLAIFLVTASVLTSGDLTTVGAAEALGPLVGDSARWLFLLGLWGAAVSTLGGNTIVPPFLLADKLGWGTTIEDNRYRGLLAAVALLSAPGAFIGGNVLGQLVLVLALGTVGTPFAIALVLYLLNSAAVPESNSLLANVGGLALIAVSGGLAANFVVEQLGGGVGPLSGFVLAFAIALGLAMAGLGGKFLREELLA | failed
MSCVDKGFSPYISLLISGLTVVFDQVIKWQTQQSIAYGDSISLTPFFNWVHTWNTGAAFGLLSNGGGWQRYFFIGVALLMSVALTRLIFNKVSKRDGISYGLILGGAVGNLIDRLFRGYVVDSLHLGWQTWQLPVFNIADIAITLGVILLLLSNLQVSMIPNLPGSK | failed
MSDAEQPAESETHDHHDHDHEGPGYATPQAAIEAAEPEQTAYVMGLHVGQDVDAPDFLAVVDLDPDSDTYSEIINRVQMPNKGDELHHFGWNACSSSCHMDGLERRHLVIPGQRSSRIHIVDTKERRDPELTKVIEPEEVYEHDLSAPHTVHCIPDGEILISMLGDADGDLPGGFLELNDDFEVQGRWDPPGEIEMNYDYWYQPRQNVMLSTEWAAPKTYYPGFDLDDVEDGKYGQRLNFWDWEDGVIEQTIDLGEDGLIPLEARFLHTPESTHGYVGAALSSNIIHFHESDGRYHAEPVIEFDDREHEGWDMPVPALVTDILISMDDRYLFGSSWLHGEVWMYDISDPSNPRKADSISIGGYFGDIEQVQGRDIVAGPQMLQLSLDGERLYWTTSLFSSWDNQFFPEEAEKGSVMLKADVDPRTGTMSLDRDFLVDFGDLPEGPARAHEIRWPDGDCTSDVWQ | failed
MSDALSAIPAAVHRNLSDKLYEKRKNAALELENIVKNLTSSGDHDKISKVIEMLIKEFAKSPQANHRKGGLIGLAAVTVGLSTEAAQYLEQIVPPVINSFSDQDSRVRYYACEALYNIAKVVRGDFIIFFNKIFDALCKLSADSDANVQSAAHLLDRLVKDIVTESDQFSIEEFIPLLKERMNVLNPYVRQFLVGWITVLDSVPDIDMLGFLPDFLDGLFNMLSDSSHEIRQQADSALSEFLQEIKNSPSVDYGRMAEILVQRAASPDEFTRLTAITWINEFVKLGGDQLVRYYADILGAILPCISDKEEKIRVVARETNEELRSIHVEPSDGFDVGAILSVARRQLSSEFEATRIEALNWISTLLNKHRTEVLCFLNDIFDTLLKALSDSSDDVVLLVLEVHAGVAKDPQHFRQLIVFLVHNFRADNSLLERRGALIVRRMCVLLDAERVYRELSTILEGEDNLDFASTMVQALNLILLTSPELSKLRELLKGSLVNREGKELFVALYTSWCHSPMAIISLCLLAQAYQHASVVIQSLVEEDINVKFLVQLDKLIRLLETPIFTYLRLQLLEPGRYTWLLKTLYGLLMLLPQQSAAFKILRTRLKTVPTYSFSTGNQIGRATSGVPFSQYKHQNEDGDLEDDNINSSHQGINFAVRLQQFENVQNLHRGQARTRVNYSYHSSSSSTSKEVRRSEEQQQQQQQQQQQQQQQQRPPPSSTSSSVADNNRPPSRTSRKGPGQLQL | not failed
MSDAQDSRVGSMFGPYHLKRLLGRGGMGEVYEAEHTVKEWTVAVKLMTAEFSKDPVFRERMKREARIAGRLQEPHVVPIHDYGEVDGQMFLEMRLVEGTDLDSVLKRFGPLTPPRAVAIITQIASALDAAHADGVMHRDVKPQNILITRDDFAYLVDFGIASATTDEKLTQLGTAVGTWKYMAPERFSNDEVTYRADIYALACVLHECLTGAPPYRADSAGTLVSSHLMGPIPQPSAIRPGIPKAFDAVVARGMAKKPEDRYASAGDLALAAHEALSDPDQDHAADILRRSQESTLPGTAAVTAQPPTMPTVTPPPIQAAPTGQPSWAPNSGPMPASGPTPTPQYYQGGGWGAPPSGGPSPWAQTPRKTNPWPFVAGAAAVVLVLVLGAIGIWIAIRPKPVQPPQPVAEERLSALLLNSSEVNAVMGSSSMQPGKPITSMDSSPVTVSLPDCQGALYTSQDPVYAGTGYTAINGLISSEPGDNYEHWVNQAVVAFPTADKARAFVQTSADKWKNCAGKTVTVTNKAKTYRWTFADVKGSPPTITVIDTQEGAEGWECQRAMSVANNVVVDVNACGYQITNQAGQIAAKIVDKVNKE | failed
MSDATNNAVLVRNLSPEVTKQTLLDFFSFCGEISAVKIRPSVGEGGSSSSGSPTEAMEALVIFENQSAKKTALVLDSATLKKRKISVMDATEELVSSFKDVREVDLARDSTDVPETATARQERLQGLREEFDRAIKRASDKLSDFNEKHRITEKVQEFGDLTKRKTQEINEQYRLTERAREGWQTVREKTRELDERLHLSESARDGWRSLKASVSKIMQKDRGGEVDKA | not failed
MSDFWENELVEIAAYYSVAVLCLVLFLTVFELVTAYKNWEEIQKGNLAVAMATGGKILGIANVFQHSISQHNSLLQMIGWGVYGFVMLLISYFIFEFLTPRFKIDQEIENDNRAVGFISFVISVGLSFVVAAGI | failed
MSDHPGPGAVTPELFGVGGDWLAVTAGESGASVFRAADATRYAKCVPAADAAGLEAERDRIAWLSGQGVPGPRVLDWYAGDAGACLVTRAVPGVPADRVGADDLRTAWGAVADAVRRLHEVPVASCPFRRGLDSVVDAARDVVARGAVHPEFLPVEQRLVPPAELLARLTGELARRRDQEAADTVVCHGDLCLPNIVLHPETLEVSGFIDLGRLGAADRHADLALLLANARETWVDEERARFADAAFAERYGIAPDPERLRFYLHLDPLTWG | failed
MSDHRPAARPWANRRRTIMSTTTLPGSTVATLTVTTPSDREVQITRIFDASRPMVFDCWTIPELLKGWLHGPDGWRLAICEIDLRVGGATRYVWQHRDGRSMGMSGAYREIVRPARIVATELFDEDWTGGETVGTVVFTEQAGKTLLTQTVLYASQAARDGALGTGMTRGMGESYAQLDAYLISLQDAAKGAA | failed
MSDILKFSVVIPVYNGSNTVTRAVDSCLKQTTLPWEIIIVNDCSKDNTLDVLIENYQGNNIVKIYSLPKNSGVSVARNLGWDKATGDFIAFLDADDVWHPSKLEVLNELKHGYKDVSCIAHKYTENSLPEEKKIMPKCKILKFRHFLIRNYFNTSCLAVCKCIGERFNETMRYTEDHDLCLRIANKMNIYYIDLPLTSLGRPQLSKGGLSGNQWAMRKGEMKLYFHACKLRWWLFPCLPLFFLFSIAKHLLKLGMRCMK | failed
MSDKKTQTRARILGAATQALLERGAVEPSVGEVMGAAGLTVGGFYAHFQSKDALMLEAFEQLLGKRRELLGELDPGLSGKERRALAAAFYLSRKHRDAQVDAGCPLPATLAEVARLPEGFREVLSRHVEIMVTSLAESPEETDVALADLVLMIGGLALARALGPGELSDRVLRAAKQAVN | not failed
MSDLLFPIISMVLLVLAEAGVLQFTGRQKVDWLDVIFNINSGHMMLWLFRCLEVLCYGLVINHFSLGLFDNAPVILLWLFTILAWDFGFYWLHRWHHEMRPLWAVHVVHHQGEHYNLSLGVRNSWYSSLTSIPFFMLLAMLGVPLQIFLAVSIIHYSWQFFNHNALTPKLGWLEKVLITPSHHRVHHLNQKQYADTNYGGTFLLWDKLFGSYSAGPEYDVGYGVKNSRLSCNPMRESNLPFLRLMGFRSFGKAIEGRYQSSPWAVGAGVILLFMLVLGYIQQYGYGIEFITSEQAVLFVLLAAGSVALGGMSDGQHWGMILWCSVTLSLLYFIVYMCSWSTLLWKGLVGILLAHCLLFVIGVGRKSLRKQYEPV | failed
MSDLRTVPKHTALLIGLMIFGLFFGAGNLIFPVELGRLAGHSAPVTAAGFLVTAVGIPIVAIISSAVSGCSSVHGMTSRVSSQYATIFTCLLYLTIGPAFAIPRTATVSYEVGVAPFIQGHGPALPIFTIVFFAMTLVAALKPGKLMDWVGRYLTPLFLALLAILIVATLIHPMPTVANRPPQPPYDHQPFMHGFLDGYNTMDALASLAFAIVIIEAINQRGSTGRRDVTHITIRAGLVATIPLTLVYVSLAWLGRTSTLVVPNAANGGVVLAGVSRHYYGTAGQVLIAAIVLVACLKTAIGLVVACAEIFRRMFPAGPSVRSWVVIFSVASAIIANAGLTTIIAWSTPVLMFLYPLAITAIILGLLDPWLGASRLPHRIMTGCVVLAALPDLVRALPIQGSGTRAITHVADMVLPWASDGLGWGLPAIIGLAAGWGASLILGRPRRWGTSS | failed
MSDNYKFFRHDNCEYFPCHKVKDKETFNCLFCYCPLYFLENCGGNKSDFNGVKDCSNCLIPHSKNGYDYIINKIREVNKEKRAKNNLTLEHHHHHH | not failed
MSDPSAKPLQEHILIILDDAGRREVLLTETFYTIGRSPRADIRIKSQFVSRIHAVLVRKSSDDVQAAYRIIDGDEDGQSSVNGLMINGKKVQEHIIQTGDEIVMGPQVSVRYEYRRRDQFGTMPGNEQFDITLIDPGMIDDEEEIPTSVSSSPPEME | failed
MSDPYPATEAHAQRAAKSPPKSLLDRLLSLVRREPEDREGIKAILEAAHERELLDAESYAMIKGALAVSERTVADIMVPRSRMDLLDISQPLPQLLATIIETAHSRFPVYEDDRDNIIGILLAKDLLRYMLEPALDIRSLVRPAVFIPEVKRLNVLLREFRASRNHLAIVIDEHGGISGLVTMEDVLEQIVGDIEDEFDEDEEESIFPEGENQWRLTASTDISHFNATFATDLPDDEYDSVGGWLGGQLGRIPRRGDSADHDGLHIEVVRADARRALWLRVRRNAGAQPPASAAE | not failed
